Earlier results in article PMC2757418.

Target: netrin-1 (UniProt O95631)

Substance: DCC (from UniProt P43146)
- Kd: 10 nM
